Assay results: patent US20030078221

Columns and labels:
[1] = biological target: Complement C1q (Homo sapiens?) (UniProt P02745+P02746+P02747); assay: filter; conditions: MgPBS 37C
[2] = biological target: Complement C5 (Homo sapiens) (UniProt P01031+P01031); assay: filter; conditions: 2'-F pyrimidines

Sequence of Complement C1q (Homo sapiens?) (P02745 23-245, chain 1 of 3): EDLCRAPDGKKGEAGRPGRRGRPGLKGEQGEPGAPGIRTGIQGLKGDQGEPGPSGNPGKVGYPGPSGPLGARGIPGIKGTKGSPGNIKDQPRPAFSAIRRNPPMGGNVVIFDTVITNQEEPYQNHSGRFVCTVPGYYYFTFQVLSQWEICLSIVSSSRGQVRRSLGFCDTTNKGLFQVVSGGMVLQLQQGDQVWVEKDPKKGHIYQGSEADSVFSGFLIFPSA
Sequence of Complement C1q (Homo sapiens?) (P02746 28-253, chain 2 of 3): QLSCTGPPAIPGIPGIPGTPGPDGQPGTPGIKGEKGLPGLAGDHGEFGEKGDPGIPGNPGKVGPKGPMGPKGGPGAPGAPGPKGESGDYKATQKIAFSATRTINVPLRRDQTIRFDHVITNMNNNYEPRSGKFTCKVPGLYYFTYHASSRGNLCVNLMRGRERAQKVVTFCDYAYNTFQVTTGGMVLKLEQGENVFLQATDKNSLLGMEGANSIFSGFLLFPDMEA
Sequence of Complement C1q (Homo sapiens?) (P02747 29-245, chain 3 of 3): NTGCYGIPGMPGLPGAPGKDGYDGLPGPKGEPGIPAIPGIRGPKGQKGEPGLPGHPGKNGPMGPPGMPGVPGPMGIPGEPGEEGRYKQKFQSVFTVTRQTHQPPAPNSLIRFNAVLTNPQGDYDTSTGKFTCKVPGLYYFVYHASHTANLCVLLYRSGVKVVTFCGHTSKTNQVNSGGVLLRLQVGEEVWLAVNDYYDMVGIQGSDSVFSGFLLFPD

Question: How did the Kd ([1]; 2'-NH2 pyrimidines) turn out when “GGGAGGACGAUGCGGNNNNNNNNNNNNNNNNNNNNNNNNNNNNNNNNNNNNNNNNNNNNNNNNNNCAGACGACUCGCCCGA [random 50N7 2'-NH2 RNA pool]” was run?
Answer: 2.3 µM

Question: Which Kd ([2]; MgPBS 37C) does the source give for “GGGAGGACGAUGCGGUGUUCAGCAUUCAGNAUCUUCACGUGUCGUCAGACGACUCGCCCGA [G3]” here?
Answer: 0.055 µM

Question: For “GGGAGGACGAUGCGGNNNNNNNNNNNNNNNNNNNNNNNNNNNNNNCAGACGACUCGCCCGA [random 30N7 2'-F RNA pool]”, which Kd ([1]; 2'-F pyrimidines) is on record?
Answer: 2.3 µM

Question: And the Kd ([2]; random pool, likely should be larger)?
Answer: > 0.001 µM
